Experimental data: the DeepSol protein solubility set

Test: soluble on expression in E. coli; label from the status in PepcDB or PDB records

Sequence | soluble on expression in E. coli
MGAAKNIWALANAEDAANDAEQIPYSSFVVDTSLPLPLMIPRIIELCKDLFKNWGELDDSLFSVERVSGGITNLLLKVSVKEDTNKEVSVTVRLYGPNTEYVINREREILAIKYLSAAGFGAKLLGGFGNGMVQSFINARTLEPSDMREPKIAAQIARELGKFHKVDIPGSKEPQLWVDILKFYEKASTLTFEEPDKQKLFETISFEELHKEIIELREFTGLLNAPVVFAHNDLLSGNFMLNDEEEKLYLIDFEYGSYNYRGFDIGNHFNEYAGYDCDYSLYPSKEEQYHFIKHYLQPDKPDEVSIAEVESVFVETDAYKLASHLYWAIWAIIQARMSPIEFEYLGYFFLRYNEYKKQKPLTFSLVTSHLSASL | soluble
MSLEGVENKVIVLAGMIGAGKSSYTELIANELGTKAFYESIKDNRILEMFYDDPKRWAFALQIYFLNTRFRSIKAALTDQNNVLDRSIYEDALFTQINFEEGNISEPEMDTYLDLLDNMMEELAYMPKKAPDLLIYLRGSLDTVLSRIALRGRPYEQIDDNPGLLEYYKHLHSRYDSWFASYDKSETLVINIDEIDINKPNDADYVMQLIHEKLKREGHHHHHH | soluble
MGSDKIHHHHHHMKQKTIHIENLSIGYLGKTDVKVVADRINAGINCGELTCLLGANGVGKSTLLRTLSAFQPKLGGKIEIVGKEIDAYTDKELSTVISVVLTEKCDIRNMTVHELVGLGRSPYTDFWGTLRGEDKEVVERSIALVKIQNLAHRMVHTLSDGERQKVMIAKALAQETPVIFLDEPTAFLDFPSKVEMMQLLHRLSRQTNKTIFLSTHDLELALQIADKIWLMDKMNGVTIGTPEDLSLSGKLSSFFARKGIVFDLETGLFRVDNEYTSQIRLVGHGQKYAMVRKALQRNGILANRTVESDTYIETGDLKDGNGFILHPQEGEAVTLNSIEELLERLQAGSAERAV | not soluble
MSLKIIPGATGYFNKTLNSNQFDNEDAIKGKVNSIYGKSIDYSTMRHRDIIIAKIDLFIQRITHNLWTAREKNVTLIKQINDLKMCVNEYIGDCTDEELNDREFIASVVDRAIFHFAINSICNPEDNKDATLIERCTFDVETKNGLPSTVQLFYEESKDNEPLANIHLQAIGSGFLTFVNACQEHDDNSLKLFASLLISLSYSSVYSDFAGRVNINEYNDNYLKAQFEELSQRDMKKYLGEMKRLADGGEMNFDGYLDKMSHLVNEGTLAPDILSKMRDAAPKLIDFAKSFDPNSKEKIKIYTGTSKLIYDLFGVKSEKEGHHHHHH | soluble
MSTPPAAPLRIALVGDHDPHITAHRAIPLALRLAGEALGLEIAFDWLASDRLPAEPALERYDGFWCVPGSPYRDADAVLRLIAHARGRRRPFLGTCAGFQHTILEFARNALGWQAATHGEEHPHSDQAVIAALPCALLEAREDVRLLRGSRLALAYAADWIEADYHCRYAIAPRFAAELTGGALRASAWSADGAIRAVELEQHPFFVATLFQPERAALAGVLPPLPKAFVEACRTQRRDHPRRGPTPYYAVIFSSHRSAVDDGYAEAAERMLELASRQPGYLGVESVRGANGFGITVSYWDSEAAIRAWSRHAEHRDAQARGRHDWYAGFSARIARVEREYAFPAQPDTAQSPASS | not soluble
MRIHSPYPASWALAQRIGYLYSEGEIIYLADTPFERLLDIQRQVGQCQTMTSLSQADFEARLEAVFHQNTGESQQIAQDIDQSVDLLSLSEEMPANEDLLNEDSAAPVIRLINAILSEAIKETASDIHIETYEKTMSIRFRIDGVLRTILQPNKKLAALLISRIKVMARLDIAEKRIPQDGRISLRIGRRNIDVRVSTLPSIYGERAVLRLLDKNSLQLSLNNLGMTAADKQDLENLIQLPHGIILVTGPTGSGKSTTLYAILSALNTPGRNILTVEDPVEYELEGIGQTQVNTRVDMSFARGLRAILRQDPDVVMVGEIRDTETAQIAVQASLTGHLVLSTLHTNSASGAVTRLRDMGVESFLLSSSLAGIIAQRLVRRLCPQCRQFTPVSPQQAQMFKYHQLAVTTIGTPVGCPHCHQSGYQGRMAIHEMMVVTPELRAAIHENVDEQALERLVRQQHKALIKNGLQKVISGDTSWDEVMRVASATLESEA | not soluble
MEKLHQCYWKSGEPQSDDIEASRMKRAAAKHLIERYYHQLTEGCGNEACTNEFCASCPTFLRMDNNAAAIKALELYKINAKLCDPHPSKKGASSAYLENSKGAPNNSCSEIKMNKKGARIDFKDVTYLTEEKVYEILELCREREDYSPLIRVIGRVFSSAEAL | soluble
MSLTIYHPAELPQRQAEKSPNKTIIKYYDRESKQWRNISWSKFAAGVMNAAKALAEIGLESGERIGIYSPNMVHCLYTELGAFAMRGVVVPLYATSSPEQLRFIVEDSSMETLFVGEQFQYNNAYRVQKEYGTLKRIVVFDERVVLNPEDKTSKYFSEFVRLGDSMPNETKVKVSSREAIPSDPALIIYTSGTSGRSKGVLLLHSNLMYQMKVHSEHIPVYGPGELSIAFLPMSHIFEKAWTLFCLTTGTRIAILRDPKKVLEALPQIRPSLMCNVPRFWEKVYQGVNEKMASSPRILKGVYRRAMAVGQRYRLDYWNEGKRAPLLLSMQYAFYNCTIFTLLKRVLGLQRGRYFPTAGAPLSDEINIFLQSVNIPIIVGYGLSETTATVSFYPQRGFKIGSMGKVMPGLDARIDPDNNEILVKGESVMSEYYNLPEETAGAFTPDGYFRTGDAGRMDPDGTLYFLERIKDLYKTANGKYIAPQMIEGMLTKDPIIEQIAVIGDRFKYVSALVYPNWELVRQAAIKRGLEQAREGHHHHHH | not soluble
MSLRVFLTGATGFVGSHVLKELLAAGHQVTGLTRSDAGGRWLVQAGASVHRGTLEDAGSLARGAEQADAVIHTAFDHVFSRYLENCAKDARVISAMAEVLKGSNRPLIITSATGIGAPGAGLPAVEEVVDWAHALPRIASERAGREAADKGVSVAVVRLPQVHDTEKQGLISPLIDIGRAKGVSAYVGDGSNHWSAVHIDDAARLYRLALEHHEAGARYHAVAEEGVSMRQIAETIGAGLGVPVLALQADEVVGHFGWLAPFMAMDMRASSAATRRRLNWTPTGPDLLTDLKAMDYRKLRTASEGHHHHHH | soluble
MAAKNAFYAQSGGVTAVINASAAGVIEAARKQSGKIGRIYAGRNGIIGALTEDLIDTGQESDAAISALRYTPSGAFGSCRYKLKSLEQNRREYERLIEVFKAHDIGYFFYNGGGDSADTCLKVSQLSGTLGYPIQAIHVPKTVDNDLPITDCCPGFGSVAKYIAVSTLEASFDVASMSATSTKVFVLEVMGRHAGWIAAAGGLASSPEREIPVVILFPEISFDKQKFLAKVDSCVKKFGYCSVVVSEGVKGDDGKFLSDQGVRDAFGHAQLGGVAPVVASMVKEGLGLKYHWGVADYLQRAARHIASKTDVEQAYAMGQAAVEFAVQGHNSVMPTIERISARPYQWKVGMAQLSQVANVEKMMPENFITEDGFGITDLCREYLAPLIEGEDYPPYKDGLPDYVRLKNVAVPKKLSGFTL | soluble
MSRATYIIGALAGSAVVAYVCDKVISDDKLFGGTTPGTITNKEWGAATEERLQAWPRVAGPPVVMNPISRQNFIVKSRPE | not soluble
MGSDKIHHHHHHARDTLFVNLTDATDSQSLKLSDFGNTVRYVPLETNEVCLIGNNPHIALLEDKIVIATKDQCFLFHKQTGKYICSIGHIGDDPSGYSSTNYWIDDAGLFYFFRAPDQLLKYNQKGEMTGKIQIPHIPAAPDFFAFSDSTIIAHCNSSIGLESSNSLLFLNSFGEKLDSIPNLLKSPSIPSPDNISSLSIIKRGAGFFGNLGRRGVMIIKDKEQGELLLPLYNPSLWSSENEVRFRETFTDTIYTIKNRKLYPYMVFHTDTDHSSANPLWYSNPQSIYVAYVLENTHSVFFQYVKNKQVYNGLYNKETQQTKFAKCQQFIVDDLTSEQELKVDLSALCSYKGEYGFILEAASIPDASQKQSDNKNENIPHWMSQLDEDANPVIAIVSDK | not soluble
MAGTGLLALRTLPGPSWVRGSGPSVLSRLQDAAVVRPGFLSTAEEETLSRELEPELRRRRYEYDHWDAAIHGFRETEKSRWSEASRAILQRVQAAAFGPGQTLLSSVHVLDLEARGYIKPHVDSIKFCGATIAGLSLLSPSVMRLVHTQEPGEWLELLLEPGSLYILRGSARYDFSHEILRDEESFFGERRIPRGRRISVICRSLPEGMGPGESGQPPPACLEHHHHHH | soluble
MQNHVISLASAAERRAHIAATFGARGIPFQFFDALMPSERLEQAMAELVPGLSAHPYLSGVEKACFMSHAVLWKQALDEGLPYIAVFEDDVLLGEGAEKFLAEDAWLKERFDPDSAFIVRLETMFMHVLTSPSGVADYCGRAFPLLESEHWGTAGYIISKKAIRFFLQHFVMLQPEQIKPIDLMMFSDFFDKEGMPVYQVSPALCAQELHYAKFHDQNSALGSLIEHDRLLNRKQQRRDSPANTFKRRLIRALTKISLEHHHHHH | soluble
MSLKFHSPSCFLSAGEPSGDTLGSDLLRNIKELNPNIHCFGVGGPLMRKEGLEPLIRMEEFQVSGFLEVFCAVFSLYKKYRKLYKAILKENPETVFCIDFPDFHFFLIRKLRKCGYRGKIIHYVCPSIWAWRPNRKKILEKHLDTLLLILPFEKEIFKDSPLKTIYLGHPLVKTIANFQDCNAWKQQLEISDQPSVALFPGSRPGDIFRNLQVQARAFRSSSLAKSHQLLVSSCNPKYDKKILELLDKEGCHNNKIVPSKFRYQLMRDCDCALAKCGTIVLEAALNQTPTIVTCLLRPFDTFLAKYIFKIFIPAYSLPNIITGSVIFPEFIGGKHDFSPEEVAAAIDILANPIGKEKQKYACQQLLKTMTENVITPKECLQAIYAQKNREGHHHHHH | not soluble
MKVTDVRLRKIQTDGRMKALVSITLDEAFVIHDLRVIEGNSGLFVAMPSKRTPDGEFRDIAHPINSDMRQEIQDAVMKVYDETDEVIPDKNATSDNEESDEA | soluble
MSYGPQLPAFLMKGQIKENEVDDEAEEGAPQVYGPVIPGMEEPKNEKEKHDDQEETSVFGPSIPKEVREKLQNVENPAEDDEEDEEFPSQSYGPSIPSNFRPTVGPSIPGTFGDDSDEDIGPMPVAKGDEEKEAIDRAYRMVLQKEAEDDEKNFQPKREEWMTSVPKKLGNFGLGARTFKKGTTSERDASWEDAPGAKKRRNEETRSARSVGIAAADARQAAIVAEKTSGPSLLEIHQKKRDEKVKDAGYAQGERRPFDREKDMEVRGLKPGGSKEAVDRMKEFADRFANSKDQRFL | not soluble
MKPKAITFDFWGTLFTEGEAFLEKVMPARYEILLDALSEAGHPVDEAEVREAYRQASLAFEEAWKAGEHMPVYERVARIFALLGAPHDPGLIALTARRLEESSLLAPLKPLPGVEVLKDLAKKYPLAIVSDTGMTPGRLLREHLKRQGLDVFQAFSFSDETGFVKPKPEAFRVALEALGVAPEEALHVGDLPQTDIKGAFGTGYPWAVQYVGLREVNGEVRPTAKVKDHRELLSLLT | soluble
SDLMTPWPIIEKRIVAAASADFVTAIYNPKSEGRYWQLYRFVEIFMQYRSADTPVGLVRQAGREEEQVTVTTLGEFDPEVVDMFTVVLVGNSQSYCYEGHFITPRGYYPEEEIEAKGI | not soluble
GAMGNLRLIGVPESDVENGTKLENTLQDIIQENFPNLARQANVQIQEIQRTPQRYSSRRATPRHIIVRFTKVEMKEKMLRAAREKGRVTLKGKPIRLTVD | soluble
MGSDKIHHHHHHMTEQVVATETVNLSQDSLQIAAYLAQPQAPGSYPGVVVLQEIFGVNGHIRDVTERIAKLGYVAIAPALFQRQAPGFETGYTPQDIEVGRGYAMQTKASELLNDIQAAIDYLKTLPQVKQNGFGCIGFCFGGHVAYLAATLPDIKATASFYGAGIATRTFGGGNPTVTRTPEIKGTLYGFFGTEDASIPPEQIDQIETELEKYNISHRVFRYDGADHGFFCDRRASYNPQAAADAWEQVQQLFKTVLTT | not soluble
